B1: Fab 49_C09 (Fab, V domains shown)
VH: QSTLKESGPTLVKPTETLTLTCTFSGFSLHTSGVGVGWIRQPPGKALECLALIYWNDDARYSPSLQSRLTITKDTSKNQVVLTMSNMDPVDTATYYCAHKGGGRDGYNSAAFDVWGQGTMVTVSS
VL: SYVLTQPPSVSVAPGQTARIPCGGNNIGMKTVHWYQQRPGQAPVVVVYDDSRRPSGIPERFSGSNSGNTATLTISRVEAGDEADYYCQVWDSSVNHWVFGGGTKLTVL
B2: 49_C09 monoclonal antibody (IgG1) (antibody, V domains shown)
VH: B1 VH
VL: B1 VL
B3: Fab 3_H2 (Fab, V domains shown)
VH: QGTLKESGPAMVKPTQTLTLTCTFSGFSLDTSGMCVAWIRQPPGKALEWLALFDWDNNKYYSPSLKTRLNMSKGRSRNQVVLTMTNMDPVDTGTYYCARKVYGSFYYGMDVWGQGTTVTVSS
VL: DIVLTQSPATLSLSPGDSATLSCRASQDVSANLAWYQQKPGQAPRLVIYDATNRATGIPARFSGSGLGTDFTLTISSLEPEDFAVYYCQQRSNWPPVYTFGQGTKLEIK
B4: 3_H2 monoclonal antibody (IgG1) (antibody, V domains shown)
VH: B3 VH
VL: B3 VL

Key:
[1] = target: A/New York/631/1996 H3N2 hemagglutinin head domain (HA1 43-309) (Influenza A virus A/New York/631/1996 …, strain); experiment: crystal structure
[2] = target: A/California/07/2009 H1N1 hemagglutinin, recombinant HA used for negative-stain EM (Influenza A virus A/California/07/2009 …, UniProt C3W5X2, strain); experiment: negative-stain EM

Binder | binding result [1] | binding result [2]
B1 | binds | –
B2 | – | binds
B3 | binds | –
B4 | – | binds

— article doi:10.1101/2025.09.24.25335646 (medRxiv, 2025)
